Assay results published in patent US20210393777A1.

What was measured:
[1] = biological target: human PCSK9-D347Y (human) (UniProt Q8NBP7); assay: cell-based or functional assay
LDLR (human) = LDLR (human) (UniProt P01130)
Chain of LDLR (human) (P01130 22-860): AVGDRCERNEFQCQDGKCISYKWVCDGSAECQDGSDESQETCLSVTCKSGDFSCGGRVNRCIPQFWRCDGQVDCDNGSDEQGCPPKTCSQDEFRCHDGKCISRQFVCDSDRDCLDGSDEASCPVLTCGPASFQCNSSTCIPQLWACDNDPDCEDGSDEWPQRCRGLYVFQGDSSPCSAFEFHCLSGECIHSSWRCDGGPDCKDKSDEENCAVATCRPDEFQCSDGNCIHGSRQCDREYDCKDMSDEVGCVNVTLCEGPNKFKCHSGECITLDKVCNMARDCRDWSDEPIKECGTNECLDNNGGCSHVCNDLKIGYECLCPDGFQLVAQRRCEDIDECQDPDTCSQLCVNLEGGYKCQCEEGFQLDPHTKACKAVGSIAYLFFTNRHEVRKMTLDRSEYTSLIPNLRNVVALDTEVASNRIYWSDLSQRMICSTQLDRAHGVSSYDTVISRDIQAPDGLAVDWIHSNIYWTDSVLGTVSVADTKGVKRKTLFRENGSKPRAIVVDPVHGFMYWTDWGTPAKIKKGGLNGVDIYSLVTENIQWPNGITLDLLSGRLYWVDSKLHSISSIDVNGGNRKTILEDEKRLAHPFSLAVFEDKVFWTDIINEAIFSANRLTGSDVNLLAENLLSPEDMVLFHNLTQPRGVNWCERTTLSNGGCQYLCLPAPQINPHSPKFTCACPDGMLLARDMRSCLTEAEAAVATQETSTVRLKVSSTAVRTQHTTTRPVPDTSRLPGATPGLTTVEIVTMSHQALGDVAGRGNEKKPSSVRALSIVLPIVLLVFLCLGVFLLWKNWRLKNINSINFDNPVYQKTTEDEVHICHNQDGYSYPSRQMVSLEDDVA

JS002 (antibody)
Biological activity (LDL uptake assay in HepG2 cells), formulation 20, 25 C, month 0 (% of reference standard) [1]: 104
Biological activity (LDL uptake assay in HepG2 cells), formulation 20, 25 C, month 1 (% of reference standard) [1]: 94.2
Biological activity (LDL uptake assay in HepG2 cells), formulation 20, 25 C, month 3 (% of reference standard) [1]: 92.6
Biological activity (LDL uptake assay in HepG2 cells), formulation 20, 25 C, month 6 (% of reference standard) [1]: 81.1
Biological activity (LDL uptake assay in HepG2 cells), formulation 28, 2-8 C, month 0 (% of reference standard) [1]: 120
Biological activity (LDL uptake assay in HepG2 cells), formulation 28, 2-8 C, month 1 (% of reference standard) [1]: 106
Biological activity (LDL uptake assay in HepG2 cells), formulation 28, 2-8 C, month 2 (% of reference standard) [1]: 111
Biological activity (LDL uptake assay in HepG2 cells), formulation 28, 2-8 C, month 3 (% of reference standard) [1]: 109
Biological activity (LDL uptake assay in HepG2 cells), formulation 28, 2-8 C, month 6 (% of reference standard) [1]: 106
Biological activity (LDL uptake assay in HepG2 cells), formulation 28, 2-8 C, month 9 (% of reference standard) [1]: 104
Biological activity (LDL uptake assay in HepG2 cells), formulation 28, 2-8 C, month 12 (% of reference standard) [1]: 109
Biological activity (LDL uptake assay in HepG2 cells), formulation 29, 2-8 C, month 0 (% of reference standard) [1]: 102
Biological activity (LDL uptake assay in HepG2 cells), formulation 29, 2-8 C, month 1 (% of reference standard) [1]: 103
Biological activity (LDL uptake assay in HepG2 cells), formulation 29, 2-8 C, month 2 (% of reference standard) [1]: 97.3
Biological activity (LDL uptake assay in HepG2 cells), formulation 29, 2-8 C, month 3 (% of reference standard) [1]: 90.3
Biological activity (LDL uptake assay in HepG2 cells), formulation 29, 2-8 C, month 6 (% of reference standard) [1]: 84.9
Biological activity (LDL uptake assay in HepG2 cells), formulation 29, 2-8 C, month 9 (% of reference standard) [1]: 103
Biological activity (LDL uptake assay in HepG2 cells), formulation 29, 2-8 C, month 12 (% of reference standard) [1]: 97.7
Biological activity (LDL uptake assay in HepG2 cells), formulation 30, 2-8 C, month 0 (% of reference standard) [1]: 114
Biological activity (LDL uptake assay in HepG2 cells), formulation 30, 2-8 C, month 1 (% of reference standard) [1]: 94.6
Biological activity (LDL uptake assay in HepG2 cells), formulation 30, 2-8 C, month 2 (% of reference standard) [1]: 96.8
Biological activity (LDL uptake assay in HepG2 cells), formulation 30, 2-8 C, month 3 (% of reference standard) [1]: 98.7
Biological activity (LDL uptake assay in HepG2 cells), formulation 30, 2-8 C, month 6 (% of reference standard) [1]: 92.3
Biological activity (LDL uptake assay in HepG2 cells), formulation 30, 2-8 C, month 9 (% of reference standard) [1]: 106
Biological activity (LDL uptake assay in HepG2 cells), formulation 30, 2-8 C, month 12 (% of reference standard) [1]: 97.2
Biological activity (LDL uptake assay in HepG2 cells), formulation 31, 2-8 C, month 0 (% of reference standard) [1]: 122
Biological activity (LDL uptake assay in HepG2 cells), formulation 31, 2-8 C, month 1 (% of reference standard) [1]: 97.9
Biological activity (LDL uptake assay in HepG2 cells), formulation 31, 2-8 C, month 2 (% of reference standard) [1]: 83.5
Biological activity (LDL uptake assay in HepG2 cells), formulation 31, 2-8 C, month 3 (% of reference standard) [1]: 107
Biological activity (LDL uptake assay in HepG2 cells), formulation 31, 2-8 C, month 6 (% of reference standard) [1]: 108
Biological activity (LDL uptake assay in HepG2 cells), formulation 31, 2-8 C, month 9 (% of reference standard) [1]: 87.8
Biological activity (LDL uptake assay in HepG2 cells), formulation 31, 2-8 C, month 12 (% of reference standard) [1]: 102
EC50, uptake of fluorescently labeled LDL by HepG2 cells exposed to human PCSK9-D347Y [1]: 0.0927 µg/mL

evolocumab (antibody)
EC50, uptake of fluorescently labeled LDL by HepG2 cells exposed to human PCSK9-D347Y [1]: 0.151 µg/mL

Cynomolgus monkey PCSK9 (from UniProt A0A7N9D9N8) (enzyme)
IC50 of the fall in RFU as PCSK9 concentration rises ('Inhibition of different PCSK9 antigen species'; binding and uptake of LDL by cells) (LDLR (human)): 2.46 µg/mL
